# Measurements published in US20120122107A1 (AARHUS UNIVERSITET, published 2012).
# Key:
# BSA = biological target: T1, BSA (UniProt P02769 25-607); test: SPR (BIAcore 3000), BSA-coated surface
# T1 construct: also called BSA-coated surface
# From the text: Using SPR we determined the strength of the interaction between MAp44 and MBL, and compared it to that of MASP-3 and MBL. The purity of the rMBL has been reported before and the rMAp44 and rMASP-3 preparations were deemed pure by silver staining of SDS-PAGE gels (FIG. 4A). MBL was coupled to SPR chips at two different densities. An SPR chip, activated and blocked, was used for subtraction of the bulk refractive index background. A BSA-coated surface served as an extra background control, which gave no higher signal than the blank surface for both MASP-3 and MAp44. […] The measurements at the other coupling density of MBL were in agreement for both MASP-3 and MAp44. The calculated KDs were similar to the 0.8 nM reported for the binding of MASP-2 to MBL.
# The SPR experiments were similar to those reported (7, 8). Using a BIAcore 3000 instrument (GE Healthcare®), binding of either rMASP-3 or rMAp44 was measured on 10940 RU of rMBL immobilized on a CM5 sensor chip (30 μg rMBL/ml used for derivatization), at a flow rate of 5 μl/min. Equivalent volumes of rMASP-3 and rMAp44 were injected at concentrations from 1 nM to 30 nM. Data were analyzed by global fitting to a 1:1 Langmuir binding model for several concentrations simultaneously using the BIAevaluation 4.1 software (GE Healthcare®).
# [1] = biological target: T2, recombinant mannan-binding lectin (UniProt P11226 21-248); test: affinity chromatography on rMBL-coupled beads
# T2 construct: Oligomeric collectin; also called rMBL; MBL
# T2 sequence (P11226 21-248 limits assumed): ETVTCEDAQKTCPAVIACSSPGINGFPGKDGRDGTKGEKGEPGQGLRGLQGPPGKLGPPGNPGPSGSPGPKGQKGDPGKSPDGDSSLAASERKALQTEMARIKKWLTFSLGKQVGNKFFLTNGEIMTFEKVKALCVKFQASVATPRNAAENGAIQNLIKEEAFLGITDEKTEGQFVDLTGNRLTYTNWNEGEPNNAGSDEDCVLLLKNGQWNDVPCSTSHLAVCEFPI
# T1 sequence (P02769 25-607 limits assumed): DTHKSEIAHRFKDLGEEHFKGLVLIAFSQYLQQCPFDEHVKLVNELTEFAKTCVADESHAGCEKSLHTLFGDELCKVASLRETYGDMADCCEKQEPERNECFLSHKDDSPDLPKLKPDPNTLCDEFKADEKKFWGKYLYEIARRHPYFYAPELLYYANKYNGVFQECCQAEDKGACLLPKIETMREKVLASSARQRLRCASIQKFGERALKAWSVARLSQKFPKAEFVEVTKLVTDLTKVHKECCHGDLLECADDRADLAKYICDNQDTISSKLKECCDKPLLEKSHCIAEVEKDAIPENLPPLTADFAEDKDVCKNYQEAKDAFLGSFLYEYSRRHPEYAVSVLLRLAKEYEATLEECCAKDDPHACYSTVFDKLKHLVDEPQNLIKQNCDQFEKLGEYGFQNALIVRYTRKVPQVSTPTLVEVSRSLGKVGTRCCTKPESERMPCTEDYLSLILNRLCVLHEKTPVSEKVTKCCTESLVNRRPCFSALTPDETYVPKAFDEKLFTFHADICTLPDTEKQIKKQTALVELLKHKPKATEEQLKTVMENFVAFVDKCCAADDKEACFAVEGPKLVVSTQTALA
binding result (BSA),binding result [1],Binder
no binding,–,"recombinant MAp44 (mannan-binding lectin-associated protein of 44 kDa) (other, Made by transient expression of the MAp44 cDNA (imaGenes clone IRAKp961F1682Q) in 293F cells and purified on rMBL-coupled beads; also called rMAp44; rMAP44) HTVELNNMFGQIQSPGYPDSYPSDSEVTWNITVPDGFRIKLYFMHFNLESSYLCEYDYVKVETEDQVLATFCGRETTDTEQTPGQEVVLSPGSFMSITFRSDFSNEERFTGFDAHYMAVDVDECKEREDEELSCDHYCHNYIGGYYCSCRFGYILHTDNRTCRVECSDNLFTQRTGVITSPDFPNPYPKSSECLYTIELEEGFMVNLQFEDIFDIEDHPEVPCPYDYIKIKVGPKVLGPFCGEKAPEPISTQSHSVLILFHSDNSGENRGWRLSYRAAGNECPELQPPVHGKIEPSQAKYFFKDQVLVSCDTGYKVLKDNVEMDTFQIECLKDGTWSNKIPTCKKNEIDLESELKSEQVTE"
–,binds,"recombinant MAp19 (other, UniProt O00187-2 16-185, looked up, also called rMAp19; rMAP19) TPLGPKWPEPVFGRLASPGFPGEYANDQERRWTLTAPPGYRLRLYFTHFDLELSHLCEYDFVKLSSGAKVLATLCGQESTDTERAPGKDTFYSLGSSLDITFRSDYSNEKPFTGFEAFYAAEDIDECQVAPGEAPTCDHHCHNHLGGFYCSCRAGYVLHRNKRTCSEQSL"
